Test system: MS2 coat protein
Assay: apparent KD of MS2 coat protein; designed switch direction (-1 OFF switch, 1 ON switch): -1; higher = weaker reporter binding
Procedure, shortened: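 An oligonucleotide input, 200 uM small-molecule ligand, or no input was present during titration of SNAP-549-labelled MS2 coat protein, which was doubled from 0.7 or 1.5 nM to 3 µM. Designed RNA switches had been transcribed on Illumina chips by stalled E. coli RNA polymerase. Apparent KD per design is the median over clusters of curves fitted to normalised cluster fluorescence.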

[1] = Eterna round: R95, input ligand: FMN 200 uM
[2] = Eterna round: R95, input ligand: microRNA oligo, concentration not stated
[3] = Eterna round: R95, input ligand: none
[4] = input ligand: microRNA oligo, concentration not stated

Sequence | apparent KD of MS2 coat protein [1] [nM] | apparent KD of MS2 coat protein [2] [nM] | apparent KD of MS2 coat protein [3] [nM] | apparent KD of MS2 coat protein (input ligand: FMN 200 uM) [nM] | apparent KD of MS2 coat protein (input ligand: none) [nM] | apparent KD of MS2 coat protein [4] [nM]
AGGGAUAAAGGAUAUACAUGAGGAUCACCCAUGUUGAGGAAAGUGAGAGGUGGCGAUAGUAGAAGGUUAGGUAG [JR_Exclu3_Sub082] (puzzle: Exclusion 3) | 86.8 | 78.8 | 137 |  |  | 
AGGGAUAAAGGAUAUACAUGAGGAUCACCCAUGUUGAGGAAAGUUAGAUGAGGAGGAAGUAGAAGGUUAGACGA [JR_Exclu3_Sub087] (puzzle: Exclusion 3) | 24.3 | 35.4 | 42.5 |  |  | 
AGGUAACAUGAGGAUCACCCAUGUCAGGAUAUCAGUAAGAUUAGAAUAGAGUAGAGUAUGAGAAGGGACUAUAU [Excluse me! 20 - Jieux - Exclusion 1] (puzzle: Exclusion 1) | 33.3 | 37.3 | 50 |  |  | 
AGGUAGUCAGGAUAUUAGUAGUAGCGGGAUAACGCUACUAUUGAGAAGGGACAUGAGGAUCACCCAUGUUUUGU [JR_Ex4_Sub067] (Eterna round: R97, puzzle: Exclusion 4) |  |  |  | 54.7 | 22.5 | 
AGGUCCUUCUGGAGACAUGAGGAUCACCCAUGUCGAGUCAGCGAGGAUAUCGGUUAAUAAUGUGAUGAGAAGGCGCAGACCGAU [Ex NG3 #53] (Eterna round: R96, puzzle: Exclusion NG 3) |  |  |  | 15.5 | 11.3 | 8.55
AGGUGCUUCAGGAGACAUGAGGAUCACCCAUGUUGAGUUAGCGAGGAUAUCGGUAACCCAUGUGAUGAGAAGGCGCAAACCAAU [Ex NG3 #46] (Eterna round: R96, puzzle: Exclusion NG 3) |  |  |  | 92.9 | 74.1 | 52.4
AGGUGCUUCUGGAGACAUGAGGAUCACCCAUGUUGAGUUAGCGAGGAUAUCGGUAACGCAUGUGAUGAGAAGGCGCAAACCAAU [Ex NG3 #47] (Eterna round: R96, puzzle: Exclusion NG 3) |  |  |  | 79.7 | 47 | 30.7
AGGUGUAGAGGAUAUACAGUGUAUUACAUGAGGAUCACCCAUGUCCUUCAAUGGGUGUCAGUAGAAGGCUACACCA [Omei Ex5 C2] (Eterna round: R97, puzzle: Exclusion 5) |  |  |  | 255 | 1660 | 
AGUAACCGUCACGAAAGUGAUGGUUACACAAGUGUAAUAACAUGAGGAUCACCCAUGUCCUCAUUUGCUCGUCUUAU [Sensor 3 - 36] (puzzle: Sensor v3, turn-off variant 2) | 41.9 | 121 | 49.4 |  |  | 
AGUAACCGUCACGAAAGUGAUGGUUACGCAAGCAAUUGUACAUGAGGAUCACCCAUGUCCUCAUUUGCUCGUCUUAU [Sensor 3 - 42] (puzzle: Sensor v3, turn-off variant 2) | 313 | 378 | 357 |  |  | 
AGUAACCGUCACGAAAGUGAUGGUUACGCAAGUAAAUGUACAUGAGGAUCACCCAUGUCCUCAUUUGCUCGUCUUAU [Sensor 3 - 44] (puzzle: Sensor v3, turn-off variant 2) | 188 | 330 |  |  |  | 
AGUAACUAUCACGAAAGUGAUAGUUACAACAAGUGAUAAACAUGAGGAUCACCCAUGUCCUCAUUUGCUCGUUUUAU [Sensor 3 - 15] (puzzle: Sensor v3, turn-off variant 2) | 328 | 646 | 323 |  |  | 
AGUAACUCAAGAGGAUAUCACAUGAGGAUCACCCAUGUAUAGCGCGCUACGCUAGUCCUCGUAUUUGAGAAGGUUUGAUAAAUG [Quve] (Eterna round: R96, puzzle: Exclusion NG 2) |  |  |  | 10.4 | 14.3 | 11.4
AGUAAGCUAGGAUAUGCUUUGGGAAAGCAAUCCUUCGAUAAACUUGAGGAUCACCCAAGUAGAAGGAGCUUACU [jl-ex2.4.50 ViennaUCT mod] (Eterna round: R97, puzzle: Exclusion 2) |  |  |  | 99.8 | 25.4 | 
AGUACUAACACGAAAGUGUUAGUACAAUAAGCUUGUGAUACAUGAGGAUCACCCAUGUCCUCAUAAGCUCGUCUUAU [salish99_TOv2_r3_045] (Eterna round: R96, puzzle: Sensor v3, turn-off variant 2) |  |  |  | 23.7 | 24.2 | 714
